Measurements taken from patent US20200102389A1.

What was measured:
[1] = molecular target: recombinant soluble human HLA-G β2M MHC class I complex, monomer (human); test: SPR (Biacore), reference antibody against monomeric wt HLA-G complex
[2] = molecular target: modified human HLA-G β2M MHC class I complex (HLA-G specific amino acids replaced by HLA-A consensus amino acids) (human); test: SPR (Biacore), reference antibody against degrafted HLA-G complex
[3] = molecular target: human HLA-G expressed on cells (JEG3 naturally; SKOV3 HLA-G+ and PA-TU-8902 HLA-G+ transfectants) (human) (UniProt P17693); test: flow cytometry, JEG3 cells pre-incubated with antibody, competitor ILT2-Fc chimera

| Kd [1] | koff [1] | kon [1] | t½ [1] | Kd [2] | koff [2] | kon [2] | t½ [2] | Inhibition of ILT2 binding to Jeg3 cells [3] | Substance |
| --- | --- | --- | --- | --- | --- | --- | --- | --- | --- |
| 12 nM | 0.00085 s⁻¹ | 74000 M⁻¹ s⁻¹ | 14 min | 13 nM | 0.0012 s⁻¹ | 89000 M⁻¹ s⁻¹ | 10 min | – | MEM-G/11 (antibody) |
| 7.7 nM | 0.0011 s⁻¹ | 150000 M⁻¹ s⁻¹ | 10 min | 300 nM | 0.036 s⁻¹ | 120000 M⁻¹ s⁻¹ | 0.3 min | -27.9% | MEM/G9 (antibody) |
